Measured values: patent publication US6548060 (dated 2003)

T1: ASK1 (apoptosis signal-regulating kinase), full-length (UniProt Q99683 1-1374, limits assumed)
T1 construct: Full-length; LexA fusion in yeast two-hybrid; HA-tagged (pcDNA3-HA-ASK1, gift of Dr. Ichijo) in 293 cells for co-IP and the MBP kinase assay; Flag-tagged in the GST-SEK1 kinase assay; also called ASK1-F; HA-ASK1
T1 sequence (looked up): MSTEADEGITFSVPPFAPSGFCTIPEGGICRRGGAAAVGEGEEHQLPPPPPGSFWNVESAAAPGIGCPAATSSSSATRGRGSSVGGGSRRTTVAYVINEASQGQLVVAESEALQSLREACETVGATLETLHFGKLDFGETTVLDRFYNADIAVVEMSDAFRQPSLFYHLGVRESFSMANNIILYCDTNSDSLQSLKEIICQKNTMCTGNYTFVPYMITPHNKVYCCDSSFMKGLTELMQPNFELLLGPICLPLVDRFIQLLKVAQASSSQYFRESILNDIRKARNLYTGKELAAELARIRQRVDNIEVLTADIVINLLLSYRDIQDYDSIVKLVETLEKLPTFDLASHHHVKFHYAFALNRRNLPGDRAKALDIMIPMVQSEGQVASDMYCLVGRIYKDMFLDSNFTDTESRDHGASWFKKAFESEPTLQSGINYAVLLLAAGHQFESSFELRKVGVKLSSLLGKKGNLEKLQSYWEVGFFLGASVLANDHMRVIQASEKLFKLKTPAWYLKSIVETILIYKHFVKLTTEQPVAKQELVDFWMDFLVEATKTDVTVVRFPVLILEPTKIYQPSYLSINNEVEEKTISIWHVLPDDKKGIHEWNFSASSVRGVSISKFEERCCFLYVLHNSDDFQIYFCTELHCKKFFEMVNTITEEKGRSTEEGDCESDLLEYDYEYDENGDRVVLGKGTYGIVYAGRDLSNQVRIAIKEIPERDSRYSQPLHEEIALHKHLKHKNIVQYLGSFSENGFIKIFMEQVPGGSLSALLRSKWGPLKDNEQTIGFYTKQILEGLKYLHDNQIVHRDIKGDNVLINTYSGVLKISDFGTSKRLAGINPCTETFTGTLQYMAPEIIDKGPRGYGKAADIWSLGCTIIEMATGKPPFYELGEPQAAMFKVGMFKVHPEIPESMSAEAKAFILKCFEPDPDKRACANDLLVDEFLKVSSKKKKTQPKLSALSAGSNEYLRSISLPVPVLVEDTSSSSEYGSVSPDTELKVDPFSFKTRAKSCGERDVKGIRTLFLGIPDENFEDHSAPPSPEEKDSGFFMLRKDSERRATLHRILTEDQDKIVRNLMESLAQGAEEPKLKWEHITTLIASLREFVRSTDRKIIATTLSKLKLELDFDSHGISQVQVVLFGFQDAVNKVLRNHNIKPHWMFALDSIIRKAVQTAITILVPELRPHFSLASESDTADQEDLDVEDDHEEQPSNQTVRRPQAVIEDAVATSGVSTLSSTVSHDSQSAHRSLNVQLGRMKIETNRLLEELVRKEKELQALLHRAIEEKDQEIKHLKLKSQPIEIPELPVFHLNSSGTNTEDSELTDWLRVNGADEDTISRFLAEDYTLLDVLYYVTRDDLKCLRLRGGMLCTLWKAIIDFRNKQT

T2: human glutaminyl-tRNA synthetase, full-length (human, UniProt P47897 1-775)
T2 construct: range 1-775; Fused to LexA in the yeast two-hybrid assay (pEG202); also called QRS; QRS-F
T2 sequence (looked up): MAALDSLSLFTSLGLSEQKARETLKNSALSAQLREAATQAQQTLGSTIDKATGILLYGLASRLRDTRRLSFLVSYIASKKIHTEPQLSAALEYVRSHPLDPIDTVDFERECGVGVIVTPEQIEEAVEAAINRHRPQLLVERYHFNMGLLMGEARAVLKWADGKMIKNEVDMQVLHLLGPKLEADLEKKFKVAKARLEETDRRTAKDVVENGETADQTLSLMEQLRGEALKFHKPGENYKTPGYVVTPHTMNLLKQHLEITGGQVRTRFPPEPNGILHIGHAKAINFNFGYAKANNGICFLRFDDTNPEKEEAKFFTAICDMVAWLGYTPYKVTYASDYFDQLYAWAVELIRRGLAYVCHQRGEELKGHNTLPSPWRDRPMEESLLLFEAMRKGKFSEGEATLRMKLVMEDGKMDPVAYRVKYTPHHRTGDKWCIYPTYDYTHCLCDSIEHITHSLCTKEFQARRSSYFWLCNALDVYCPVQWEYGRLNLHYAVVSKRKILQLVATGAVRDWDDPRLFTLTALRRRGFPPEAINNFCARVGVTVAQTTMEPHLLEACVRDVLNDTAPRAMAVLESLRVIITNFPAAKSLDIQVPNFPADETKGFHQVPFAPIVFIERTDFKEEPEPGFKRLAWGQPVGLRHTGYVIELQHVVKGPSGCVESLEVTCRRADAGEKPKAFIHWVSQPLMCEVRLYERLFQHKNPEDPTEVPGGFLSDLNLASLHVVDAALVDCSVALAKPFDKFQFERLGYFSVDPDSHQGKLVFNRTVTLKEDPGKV

B1: N-terminal 236 aa extension of human glutaminyl-tRNA synthetase (other, UniProt P47897 1-236, looked up)
chain: MAALDSLSLFTSLGLSEQKARETLKNSALSAQLREAATQAQQTLGSTIDKATGILLYGLASRLRDTRRLSFLVSYIASKKIHTEPQLSAALEYVRSHPLDPIDTVDFERECGVGVIVTPEQIEEAVEAAINRHRPQLLVERYHFNMGLLMGEARAVLKWADGKMIKNEVDMQVLHLLGPKLEADLEKKFKVAKARLEETDRRTAKDVVENGETADQTLSLMEQLRGEALKFHKPGE
notes: range 1-236; LexA fusion in yeast two-hybrid; GST fusion (pGEX4T-2), purified, in the in vitro pull-down; Myc-tagged from pcDNA3 in 293 cells for co-IP; also called QRS-N; LexA-QRS-N
B2: C-terminal 137 aa peptide of human Daxx (G604-D740) (other, UniProt Q9UER7 604-740, looked up)
chain: GAGMVSSTSFNGGVSPHNWGDSGPPCKKSRKEKKQTGSGPLGNSYVERQRSVHEKNGKKICTLPSPPSPLASLAPVADSSTRVDSPSHGLVTSSLCIPSPARLSQTPHSQPPRPGTCKTSVATQCDPEEIIVLSDSD
notes: range 604-740; B42 fusion in yeast two-hybrid; His fusion (pET28a), purified, in the in vitro pull-down; also called Daxx-C; B42-Daxx-C

Key:
human Daxx, full-length = biological target: T3, human Daxx, full-length (human, UniProt Q9UER7 1-740); experiment: summary of the experiments in the legend of FIG. 1
T3 construct: range 1-740; Expressed from pcDNA3 in 293 cells for co-IP; also called B42-Daxx; pcDNA3-Daxx

[1] = biological target: T1, ASK1 (apoptosis signal-regulating …); experiment: co-immunoprecipitation with anti-HA antibody from 293 cells (FIG. 3A)
Description: Figure 3: FIG. 3. Interaction of QRS-C and ASK1-N. A. The cDNA (4 ug each) encoding QRS-F. -N or -C (Myc tagged) cloned in pcDNA3 was transfected into 293 cells in 100-mm dishes with 0.5 ug pcDNA3-HA-ASK1 (a kind gift of Dr. Ichijo, Tokyo university, Japan). Co-immunoprecipitation between HA-ASK1 and QRS was carried out as described previously (11) using anti-HA antibody (Santa Cruz). The precipitated proteins were resolved in 10% SDS-polyacrylamide gel, and the presence of QRS-F and -N, and -C were detected by immunoblotting with anti-QRS (17) and Myc (9E10, Boehringer Mannheim) antibodies, respectively. -B. pcDNA3-QRS-F (4 ug) was co-transfected into 293 cells with pcDNA3-HA-ASK1-F (full length) or -N (N-terminal 649 aa) (4 ug each). The cells were harvested after 24 hrs and the ASK1 peptides were precipitated with anti-HA antibody and co-precipitation of QRS was determined by immunoblotting with anti-QRS antibody. […]
Since ASK1 is the immediate downstream kinase of Daxx, we tested whether QRS also interacts with ASK1. The interaction of the two proteins was determined by co-immunoprecipitation. […] Since the N-terminal 649 aa peptide was previously determined to be a regulatory domain interacting with Daxx, (FIG. 1), we tested whether QRS interacts with ASK1-N or -C. […]

[2] = biological target: B1; experiment: in vitro pull-down, purified His-Daxx-C with GST-QRS-N on GST resin, Coomassie-stained gel (FIG. 2B)
Description: (§1) Figure 2: FIG. 2. Interaction of QRS-N and Daxx-C. A. (upper panel) The interaction of QRS and Daxx was mapped by yeast two hybrid analysis. The full-length (F), N-terminal 236 aa (N) and C-terminal 539 aa (C) peptides of QRS, and the full-length ASK1 were fused to LexA (DNA-binding protein). […] The pairs of LexA and B42 hybrid proteins were expressed in a yeast tester strain and the positive interactions were determined by the formation of blue colonies as described previously (8). […] Daxx-C and QRS-N were expressed as His (pET28a, Novagen) and GST (pGEX4T-2, Amersham Pharmacia Biotech) fusion proteins, respectively and purified following the manufacturer's instructions. The purified His-Daxx-C (5 ug) was mixed with GST or GST-QRS-N (5 ug) at 4° C. for 30 min in 20 mM sodium phosphate buffer, pH 7.8, containing 500 mM NaCl. The GST proteins were precipitated with the GST resin (10 ul) and the precipitated proteins were eluted and resolved by 12% SDS-polyacrylamide gel electrophoresis and stained with Coomasie blue. Figure 2:
The interaction between the Daxx-C and QRS-N was confirmed by in vitro pull down experiment. Daxx-C and QRS-N were expressed as His and GST fusion proteins, respectively. The purified two fusion proteins were then mixed and precipitated with the GST resin. Daxx-C was co-precipitated with QRS-N, confirming the direct interaction between the two molecules (FIG. 2B).

[3] = biological target: T2, human glutaminyl-tRNA synthetase, …; experiment: yeast two-hybrid (FIG. 2A)
Description: as §1
(§2) Human Daxx was originally identified to be associated to Fas to mediate apoptotic signal ( 10) to its downstream kinase, ASK1 (11). The activation of ASK1 then results in activation of Jun N-terminal kinase (JNK) and p38 for cellular apoptosis (12). The interaction between QRS and Daxx was further refined by yeast two hybrid analysis. […]

[4] = biological target: T4, N-terminal 610 aa peptide of Daxx (human, UniProt Q9UER7 1-610); experiment: yeast two-hybrid (FIG. 2A lower panel)
T4 construct: range 1-610; Yeast two-hybrid construct; 610 aa overlaps Daxx-C (604-740) by a few residues as printed; also called Daxx-N
T4 sequence (Q9UER7 1-610 limits assumed): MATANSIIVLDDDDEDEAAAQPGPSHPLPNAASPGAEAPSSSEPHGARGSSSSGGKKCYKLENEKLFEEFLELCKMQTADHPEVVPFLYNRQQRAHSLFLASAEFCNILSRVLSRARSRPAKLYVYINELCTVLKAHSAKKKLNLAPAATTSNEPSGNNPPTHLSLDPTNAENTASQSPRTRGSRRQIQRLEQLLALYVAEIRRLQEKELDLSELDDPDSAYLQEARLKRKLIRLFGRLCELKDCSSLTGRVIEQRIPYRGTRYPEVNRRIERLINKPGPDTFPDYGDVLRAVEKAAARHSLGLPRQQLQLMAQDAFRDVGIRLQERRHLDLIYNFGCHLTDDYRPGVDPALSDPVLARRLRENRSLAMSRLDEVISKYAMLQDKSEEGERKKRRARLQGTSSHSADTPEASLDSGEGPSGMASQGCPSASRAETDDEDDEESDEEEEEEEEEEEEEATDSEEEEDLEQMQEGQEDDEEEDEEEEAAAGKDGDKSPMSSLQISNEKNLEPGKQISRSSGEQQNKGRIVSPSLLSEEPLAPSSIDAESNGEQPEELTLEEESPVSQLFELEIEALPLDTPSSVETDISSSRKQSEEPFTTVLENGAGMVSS
Description: as §1, with “Interaction” for “Figure 2: FIG. 2. Interaction”
as §2

binding result (human Daxx, full-length)	binding result [1]	binding result [2]	binding result [3]	binding result [4]	Binder
binds	no binding	–	–	–	B1
–	–	binds	binds	binds	B2
